{
  "source": "paper PMC3340421",
  "about": "(Biochemistry, 2009)",
  "molecules": {"B1": {"name": "Ribonucleotide reductase R1 subunit alpha2 (protein)", "chain": "MNQNLLVTKRDGSTERINLDKIHRVLDWAAEGLHNVSISQVELRSHIQFYDGIKTSDIHETIIKAAADLISRDAPDYQYLAARLAIFHLRKKAYGQFEPPALYDHVVKMVEMGKYDNHLLEDYTEEEFKQMDTFIDHDRDMTFSYAAVKQLEGKYLVQNRVTGEIYESAQFLYILVAACLFSNYPRETRLQYVKRFYDAVSTFKISLPTPIMSGVRTPTRQFSSCVLIECGDSLDSINATSSAIVKYVSQRAGIGINAGRIRALGSPIRGGEAFHTGCIPFYKHFQTAVKSCSQGGVRGGAATLFYPMWHLEVESLLVLKNNRGVEGNRVRHMDYGVQINKLMYTRLLKGEDITLFSPSDVPGLYDAFFADQEEFERLYTKYEKDDSIRKQRVKAVELFSLMMQERASTGRIYIQNVDHCNTHSPFDPAIAPVRQSNLCLEIALPTKPLNDVNDENGEIALCTLSAFNLGAINNLDELEELAILAVRALDALLDYQDYPIPAAKRGAMGRRTLGIGVINFAYYLAKHGKRYSDGSANNLTHKTFEAIQYYLLKASNELAKEQGACPWFNETTYAKGILPIDTYKKDLDTIANEPLHYDWEALRESIKTHGLRNSTLSALMPSETSSQISNATNGIEPPRGYVSIKASKDGILRQVVPDYEHLHDAYELLWEMPGNDGYLQLVGIMQKFIDQSISANTNYDPSRFPSGKVPMQQLLKDLLTAYKFGVKTLYYQNTRDGAEDAQDDLVPSIQDDGCESGACKI"}, "B2": {"name": "α2: active site-containing subunit of RNR, E. coli class I, homodimer (protein, UniProt P00452 1-761, looked up)", "Ribonucleoside-diphosphate …": "B1 chain"}},
  "key": {"[1]": {"settings": "cited from earlier work"}, "[2]": {"assay": "time-resolved emission of free [Re]-peptides", "format": "physicochemical", "settings": "free peptide"}, "α2": {"molecular_target": "α2 (Escherichia coli, UniProt P00452)", "assay": "peptide binding to α2 by steady-state emission titration", "design": "species or system E. coli", "settings": "5 μM peptide, α2 0→65 μM, pH 7.5"}, "[3]": {"settings": "MP-FRaP"}, "[4]": {"settings": "[Re^II(bpy•−)]* couple; cited from earlier work"}, "[5]": {"molecular_target": "Ac-Y-βC19 peptide C-terminal 19-residue peptide (Escherichia coli) (UniProt P69924)", "settings": "cited from earlier work"}, "[6]": {"molecular_target": "[Re]-Y-βC19 peptide (C-terminal tail of beta2) 356-375 (Escherichia coli, UniProt P69924, Re(bpy)(CO)3CN appended at N-terminus of peptide)", "sequence (P69924 356-375)": "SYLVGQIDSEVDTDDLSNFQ", "assay": "steady-state emission titration"}, "[7]": {"assay": "α2 radius by DLS or crystal structure and Einstein-Stokes diffusion coefficient", "settings": "for diffusion coefficient kd2: Einstein-Stokes, 25 °C, η ∼1 cP"}},
  "data": [
    {"molecule": "CC(=O)N[C@@H](Cc1cc(F)c(O)c(F)c1)C(N)=O", "note": "[Ac-3,5-F2Y-NH2]", "values": [
      {"measurement": "pKa of 3,5-F2Y amino acid in solution", "setting": "[1]", "result": 7.2}
    ]},
    {"molecule": "CC[C@H](C)[C@H](NC(=O)[C@H](CCC(N)=O)NC(=O)CNC(=O)[C@@H](NC(=O)[C@H](CC(C)C)NC(=O)[C@H](Cc1ccc(O)cc1)NC(=O)c1ccnc(-c2cc(C)ccn2)c1)C(C)C)C(=O)N[C@@H](CC(=O)O)C(=O)N[C@@H](CO)C(=O)N[C@@H](CCC(=O)O)C(=O)N[C@H](C(=O)N[C@@H](CC(=O)O)C(=O)N[C@H](C(=O)N[C@@H](CC(=O)O)C(=O)N[C@@H](CC(=O)O)C(=O)N[C@@H](CC(C)C)C(=O)N[C@@H](CO)C(=O)N[C@@H](CC(N)=O)C(=O)N[C@@H](Cc1ccccc1)C(=O)N[C@@H](CCC(N)=O)C(=O)N[C@@H](CC(C)C)C(=O)O)[C@@H](C)O)C(C)C", "note": "[[Re]-Y-βC19]", "values": [
      {"measurement": "emission decay lifetime τ1", "setting": "[2]; pH 12, bi-exponential fit", "result": 0.5, "unit": "ns"},
      {"measurement": "emission decay lifetime τ2", "setting": "[2]; pH 12, bi-exponential fit", "result": 3.0, "unit": "ns"},
      {"measurement": "fraction of emission decay component τ1", "setting": "[2]; pH 12, bi-exponential fit", "result": 86, "unit": "%"},
      {"measurement": "fraction of emission decay component τ2", "setting": "[2]; pH 12, bi-exponential fit", "result": 14, "unit": "%"},
      {"measurement": "emission lifetime τ", "setting": "[2]; pH < 10", "result": "62 ± 2", "unit": "ns"},
      {"measurement": "change of emission band upon binding to α2", "setting": "α2", "result": "the emission band blue shifts and increases in intensity"},
      {"measurement": "diffusion coefficient kd1", "setting": "[3]", "result": "6.1 × 10^−7 cm^−1 s^–1"}
    ]},
    {"molecule": "Re(bpy)(CO)3CN [[Re]]", "values": [
      {"measurement": "excited state reduction potential E°", "setting": "[4]", "result": 1.59, "unit": "V vs. NHE"}
    ]},
    {"molecule": "ribonucleotide reductase alpha2 (from UniProt P00452)", "values": [
      {"measurement": "Kd", "setting": "[5]", "result": 20, "unit": "µM"}
    ]},
    {"molecule": "B1", "values": [
      {"measurement": "Kd", "setting": "[6]", "result": 9, "unit": "µM"}
    ]},
    {"molecule": "B2", "values": [
      {"measurement": "diffusion coefficient kd2", "setting": "[7]; DLS radius 55.8 Å", "result": "3.9 × 10^−7 cm^2 s^−1"},
      {"measurement": "diffusion coefficient kd2", "setting": "[7]; crystal structure radius 40.4 Å", "result": "5.4 × 10^−7 cm^2 s^−1"},
      {"measurement": "radius estimated from crystal structure", "setting": "[7]; eq 5 with d1, d2, d3 = 100.7, 71.4, 73.2 Å", "result": 40.4, "unit": "Å"}
    ]}
  ]
}
